In patent publication US20030152571A1:

How the values were obtained:
[1] = biological target: rabbit αvβ3 receptor on rabbit smooth muscle cells (rabbit); assay: cell-based or functional assay
[2] = biological target: human vitronectin receptor αvβ3 purified from human placenta (human) (UniProt P06756); assay: competition: 1 ug/ml αvβ3 preincubated with unlabeled antibody, then binding of 1 ug/ml D12
[3] = biological target: human vitronectin receptor αvβ3 purified from human placenta (human) (UniProt P06756); assay: BIAcore; αvβ3 in a hybrid bilayer membrane on the sensor, mAb at 100, 25, 6 nM in triplicate
[4] = biological target: human vitronectin receptor αvβ3 purified from human placenta (human) (UniProt P06756); assay: BIAcore; immobilized αvβ3, mAb in solution
[5] = biological target: human vitronectin receptor αvβ3 purified from human placenta (human) (UniProt P06756); assay: ORIGEN competition: αvβ3-biotin (1 ug/ml) preincubated with unlabeled antibody, then 1 ug/ml Tag-LM609
[6] = biological target: human vitronectin receptor αvβ3 purified from human placenta (human) (UniProt P06756); assay: BIAcore, αvβ3 immobilized in a hybrid bilayer membrane on the sensor surface, mAb in solution

murine monoclonal antibody LM609
Inhib (%) R-SMC (50 mg/ml) [1]: 43%
% Inhibition at 0.1 ug/ml [2]: 3%
% Inhibition at 1 ug/ml [2]: 29%
% Inhibition at 10 ug/ml [2]: 68%
Kd [3]: 0.46 nM
Kd [4]: 3.8 nM
% Inhibition at 0.1 ug/ml [5]: 3%
% Inhibition at 1 ug/ml [5]: 41%
% Inhibition at 10 ug/ml [5]: 79%
koff [6]: 0.00051 s⁻¹
kon [6]: 1.1e+06 M⁻¹ s⁻¹
